Data on six molecules can be found in patent US12404345B2, “Humanized antibodies against iRHOM2” (SCIRHOM GMBH, priority 2021, dated 2025).

B1: 16-B-03: humanized antibody binding human iRhom2; HCVD SEQ ID NO 1, LCVD SEQ ID NO 5 (antibody, V domains shown)
VH: QVTLRESGPALVKPTQTLTLTCTFSGFSLSTFALGVGWIRQPPGKALEWLAHIWWDDDKYYNPALKSRLTISKDTSKNQVVLTITNMDPVDTATYYCARITTYYYGMDYWGQGTLVTVSS
VL: EIVMTQSPDFQSVTPKEKVTITCRASQSIGNHLHWYQQKPDASPKLLIKYASQSISGVPSRFSGSGSGTDFTLTINSLEAEDAATYFCQQSYQWPLTFGQGTKLEIK
modifications: antibody sequences
B2: 16-B-05: humanized antibody binding human iRhom2; HCVD SEQ ID NO 9, LCVD SEQ ID NO 13 (antibody, V domains shown)
VH: B1 VH with D57E
VL: B1 VL with Q93N
modifications: antibody sequences
B3: 16-B-07: humanized antibody binding human iRhom2; HCVD SEQ ID NO 17, LCVD SEQ ID NO 21 (antibody, V domains shown)
VH: B1 VH with D57E
VL: B1 VL
modifications: antibody sequences
B4: 23-B-04: humanized antibody binding human iRhom2; HCVD SEQ ID NO 25, LCVD SEQ ID NO 29 (antibody, V domains shown)
VH: QVTLRESGPALVKPTQTLTLTCTFSGFSLSTFGMGVGWIRQPPGKALEWLAHIWWDDEKYYNSALKSRLTISKDTSKNQVVLTITNMDPVDTATYYCARISNYGSNYWYFNVWGQGTLVTVSS
VL: AIQLTQSPSSLSASVGDRVTITCRASSSVSYMYWYQQKPGKAPKVLIYDTSNLASGVPSRFSGSGSGTDYTLTISSLQPEDFATYYCQQWNAYPLTFGQGTKLEIK
modifications: antibody sequences
B5: 42-B-02: humanized antibody binding human iRhom2; HCVD SEQ ID NO 33, LCVD SEQ ID NO 37 (antibody, V domains shown)
VH: B4 VH with M34R, S101Q, N111D
VL: B4 VL with S28R, V29I, Y33F, A92S
modifications: antibody sequences
B6: 42-B-04: humanized antibody binding human iRhom2; HCVD SEQ ID NO 41, LCVD SEQ ID NO 45 (antibody, V domains shown)
VH: B4 VH with M34R, S101Q, N111D
VL: B4 VL with S28R, V29I, Y33F
modifications: antibody sequences

Residue numbers refer to the chain shown, from its start.

In one test the target is T1, rhesus monkey iRhom1 (Macaca mulatta, UniProt F6ZPC8).
T1 construct: T7-tagged version of rhesus monkey iRhom1 full length wild type; expressed in transfected cells; host or cells: immortalized iRhom1/2-/- DKO mouse embryonic fibroblasts, pMSCV retroviral infection
T1 sequence (F6ZPC8 1-833): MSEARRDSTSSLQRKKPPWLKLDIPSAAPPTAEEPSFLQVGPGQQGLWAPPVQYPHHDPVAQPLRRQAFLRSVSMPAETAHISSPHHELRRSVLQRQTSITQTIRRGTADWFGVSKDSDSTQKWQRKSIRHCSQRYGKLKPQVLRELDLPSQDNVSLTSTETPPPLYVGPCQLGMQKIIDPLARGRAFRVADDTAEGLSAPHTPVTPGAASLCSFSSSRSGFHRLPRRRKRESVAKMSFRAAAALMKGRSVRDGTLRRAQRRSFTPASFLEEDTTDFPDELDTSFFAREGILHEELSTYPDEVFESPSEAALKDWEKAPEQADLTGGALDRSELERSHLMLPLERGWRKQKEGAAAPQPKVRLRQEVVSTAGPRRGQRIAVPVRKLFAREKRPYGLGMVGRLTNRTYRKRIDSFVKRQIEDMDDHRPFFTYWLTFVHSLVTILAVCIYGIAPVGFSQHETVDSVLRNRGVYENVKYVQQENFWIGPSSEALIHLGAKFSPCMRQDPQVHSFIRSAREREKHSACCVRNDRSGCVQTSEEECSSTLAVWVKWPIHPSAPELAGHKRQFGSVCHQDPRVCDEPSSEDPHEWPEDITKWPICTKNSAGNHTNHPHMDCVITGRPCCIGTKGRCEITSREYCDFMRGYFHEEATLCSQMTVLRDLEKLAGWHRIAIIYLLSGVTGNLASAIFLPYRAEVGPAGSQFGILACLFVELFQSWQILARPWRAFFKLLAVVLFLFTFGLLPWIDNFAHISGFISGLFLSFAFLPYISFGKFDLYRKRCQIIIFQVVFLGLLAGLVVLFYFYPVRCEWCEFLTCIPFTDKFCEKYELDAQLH
Description: FACS binding on MEF-DKO-Rhesus-iR1-FL-WT-T7 cells. The settings on record: antibody at 3 μg/ml. From the text:
(§1) Next, iRhom1/2−/− DKO MEFs stably expressing a tagged form of rhesus monkey, cynomolgus monkey, dog or rabbit iRhom2 were generated in order to determine cross-reactivity of the antibodies of the invention with the respective orthologue of iRhom2. iRhom1/2−/− DKO MEFs stably expressing a tagged form of rhesus monkey, cynomolgus monkey, dog or rabbit iRhom1 were generated to confirm specificity for iRhom2 versus iRhom1 of these species.
(§2) In brief, on day 1, Phoenix-ECO cells (American Type Culture Collection, USA) were seeded on 6-well tissue culture plates (Greiner, Germany) in standard growth medium at 8×10^5 cells per well and kept overnight at 37° C., 5% CO2. On day 2, the medium was replaced by fresh medium supplemented with chloroquine (Sigma-Aldrich, USA) at a final concentration of 25 μM. Applying the calcium phosphate method, cells were transfected with 2 μg/ml of pMSCV (Clontech, USA) empty vector, pMSCV-rhesus-iR2-FL-WT-T7 encoding rhesus monkey iRhom2 full length wild type C-terminally tagged with 3 consecutive copies of the T7 epitope, pMSCV-cyno-iR2-FL-WT-T7 encoding cynomolgus monkey iRhom2 full length wild type C-terminally tagged with 3 consecutive copies of the T7 epitope, pMSCV-dog-iR2-FL-WT-T7 encoding dog iRhom2 full length wild type C-terminally tagged with 3 consecutive copies of the T7 epitope or pMSCV-rabbit-iR2-FL-WT-T7 encoding rabbit iRhom2 full length wild type C-terminally tagged with 3 consecutive copies of the T7 epitope, respectively, and were kept at 37° C., 5% CO2. After 7 hours, the transfections were stopped by replacing cell supernatants with standard growth medium lacking chloroquine, and cells were incubated at 37° C., 5% CO2 to allow virus production overnight. In parallel, immortalized iRhom1/2−/− DKO MEFs as target cells for retroviral infection were seeded on 6-well tissue culture plates (Greiner, Germany) in standard growth medium at 1×10^5 cells per well and were also kept overnight at 37° C., 5% CO2. On day 3, the supernatants of Phoenix-ECO cells releasing pMSCV, pMSCV-rhesus-iR2-FL-WT-T7, pMSCV-cyno-iR2-FL-WT-T7, pMSCV-dog-iR2-FL-WT-T7 or pMSCV-rabbit-iR2-FL-WT-T7 ecotrophic virus, respectively were collected, filtered with 0.45 μm CA filters, and supplemented with 4 μg/ml of polybrene (Sigma-Aldrich, USA). Upon removal of medium from the immortalized iRhom1/2−/− DKO MEFs, the virus containing supernatants were added to the target cells for 4 hours at 37° C., 5% CO2 for first infection. Simultaneously, Phoenix-ECO cells were re-incubated with fresh medium, which, after another 4 hours, was filtered and used for the second infection of the respective target cell populations, again in the presence of 4 μg/ml of polybrene. Likewise, a third, but overnight infection cycle was performed. On day 4, virus containing cell supernatants were replaced by fresh standard growth medium. From day 5 onwards, cells were grown in the presence of 2 mg/ml of geneticin (G418, Thermo Fisher Scientific, USA) for the selection of immortalized MEF-DKO-EV control cells stably infected with pMSCV empty vector, pMSCV-rhesus-iR2-FL-WT-T7 cells stably expressing rhesus monkey iRhom2 full length wild type C-terminally tagged with 3 consecutive copies of the T7 epitope, pMSCV-cyno-iR2-FL-WT-T7 cells stably expressing cynomolgus monkey iRhom2 full length wild type C-terminally tagged with 3 consecutive copies of the T7 epitope, pMSCV-dog-iR2-FL-WT-T7 cells stably expressing dog iRhom2 full length wild type C-terminally tagged with 3 consecutive copies of the T7 epitope or pMSCV-rabbit-iR2-FL-WT-T7 cells stably expressing rabbit iRhom2 full length wild type C-terminally tagged with 3 consecutive copies of the T7 epitope, respectively. Upon propagation, cells were stocked for future usage. In parallel, iRhom1/2−/− DKO MEFs stably expressing a tagged form of rhesus monkey, cynomolgus monkey, dog or rabbit iRhom1 were generated in an analogous manner. […]
On to B1, for which the “binding to rhesus monkey iRhom1 on MEF-DKO-Rhesus-iR1-FL-WT-T7 cells” value (“binding to rhesus monkey iRhom1” below) is “no significant binding”.
For B2, the “binding to rhesus monkey iRhom1” value is reported as “do not recognize rhesus monkey iRhom1”.
In the case of B3, the “binding to rhesus monkey iRhom1” value is listed as “do not recognize rhesus monkey iRhom1”.
With B4, the “binding to rhesus monkey iRhom1” value is listed as “do not recognize rhesus monkey iRhom1”.
As to B5, the “binding to rhesus monkey iRhom1” value is on record as “do not recognize rhesus monkey iRhom1”.
The same measure, in the same setting: next, B6: “do not recognize rhesus monkey iRhom1”.

The subject of the next test is cynomolgus monkey iRhom2. Kind of test: FACS cross-reactivity on MEF-DKO-Cyno-iR2-FL-WT-T7 cells. It is filed as binding. Particulars: antibody at 3 μg/ml.
Excerpt: as §1, §2
Turning to B1, the “binding to cynomolgus monkey iRhom2 on MEF-DKO-Cyno-iR2-FL-WT-T7 cells” value (“binding to cynomolgus monkey iRhom2” for short) is “Strong binding”.
On the same count and under the same terms, the entry for B2 is “recognize cynomolgus monkey iRhom2”.
For the molecule B3, the “binding to cynomolgus monkey iRhom2” value was “recognize cynomolgus monkey iRhom2”.
With B4, the “binding to cynomolgus monkey iRhom2” value is listed as “recognize cynomolgus monkey iRhom2”.
In the case of B5, the “binding to cynomolgus monkey iRhom2” value is “recognize cynomolgus monkey iRhom2”.
Turning to B6, the “binding to cynomolgus monkey iRhom2” value is reported as “recognize cynomolgus monkey iRhom2”.

The test system of the next test is cynomolgus monkey iRhom1. Description: FACS binding on MEF-DKO-Cyno-iR1-FL-WT-T7 cells. The settings on record: antibody at 3 μg/ml.
Excerpt: as §1, §2
Regarding B1, the “binding to cynomolgus monkey iRhom1 on MEF-DKO-Cyno-iR1-FL-WT-T7 cells” value (from here on “binding to cynomolgus monkey iRhom1”) is on record as “no significant binding”.
Consider B2, for which the “binding to cynomolgus monkey iRhom1” value is “do not recognize cynomolgus monkey iRhom1”.
B3: the “binding to cynomolgus monkey iRhom1” value is “do not recognize cynomolgus monkey iRhom1”.
Regarding B4, the “binding to cynomolgus monkey iRhom1” value is “do not recognize cynomolgus monkey iRhom1”.
For the molecule B5, the “binding to cynomolgus monkey iRhom1” value is on record as “do not recognize cynomolgus monkey iRhom1”.
Regarding B6, the “binding to cynomolgus monkey iRhom1” value was “do not recognize cynomolgus monkey iRhom1”.

The subject of a further test is rabbit iRhom1. Kind of test: FACS binding on MEF-DKO-Rabbit-iR1-FL-WT-T7 cells. Particulars: antibody at 3 μg/ml.
Excerpt: as §1, §2
In the case of B1, the “binding to rabbit iRhom1 on MEF-DKO-Rabbit-iR1-FL-WT-T7 cells” value (from here on “binding to rabbit iRhom1”) is reported as “no significant binding”.
In the case of B2, the “binding to rabbit iRhom1” value is “do not recognize rabbit iRhom1”.
For the molecule B3, the “binding to rabbit iRhom1” value is “do not recognize rabbit iRhom1”.
For the molecule B4, the “binding to rabbit iRhom1” value is on record as “do not recognize rabbit iRhom1”.
B5: the “binding to rabbit iRhom1” value is “do not recognize rabbit iRhom1”.
For the molecule B6, the “binding to rabbit iRhom1” value is given as “do not recognize rabbit iRhom1”.
